Values quoted from earlier work in article PMC2667909.

Biological target: Histone H3 peptide (H3K27me3) (Drosophila melanogaster) (UniProt P02299)

Kd: 5 µM
Substance: Polycomb (Pc) chromodomain (from UniProt P26017)
